Residue numbers refer to the chain shown, from its start. “Also recorded” adds a separate entry of the source.
T1: Hybrid LAMP1 / glycan-deleted LAMP1 transmembrane proteins (Homo sapiens, UniProt P11279, A93T/T85V/V91T)
T1 construct: expressed in transfected cells; host or cells: 293-F (HEK293-derived), transient transfection
T1 sequence (P11279 with tags, fused parts or gaps T85V/V91T/A93T): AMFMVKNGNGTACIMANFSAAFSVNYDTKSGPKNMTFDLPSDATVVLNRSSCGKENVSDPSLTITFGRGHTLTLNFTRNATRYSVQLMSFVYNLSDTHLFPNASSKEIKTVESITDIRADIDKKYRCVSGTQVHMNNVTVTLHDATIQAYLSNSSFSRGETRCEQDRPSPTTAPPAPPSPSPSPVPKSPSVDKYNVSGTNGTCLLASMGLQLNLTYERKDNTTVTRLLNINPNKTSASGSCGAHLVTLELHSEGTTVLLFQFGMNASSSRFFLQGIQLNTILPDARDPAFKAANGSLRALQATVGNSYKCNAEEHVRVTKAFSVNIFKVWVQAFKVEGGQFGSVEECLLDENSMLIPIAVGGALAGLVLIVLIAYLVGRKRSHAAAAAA

T2: Hybrid LAMP1 / glycan-deleted LAMP1 transmembrane proteins (Mus musculus, UniProt P11438, E181G/G176S/K180R/N177S/S175N)
T2 construct: expressed in transfected cells; host or cells: 293-F (HEK293-derived), transient transfection
T2 sequence (P11438 with tags, fused parts or gaps S175N/G176S/N177S/K180R/E181G): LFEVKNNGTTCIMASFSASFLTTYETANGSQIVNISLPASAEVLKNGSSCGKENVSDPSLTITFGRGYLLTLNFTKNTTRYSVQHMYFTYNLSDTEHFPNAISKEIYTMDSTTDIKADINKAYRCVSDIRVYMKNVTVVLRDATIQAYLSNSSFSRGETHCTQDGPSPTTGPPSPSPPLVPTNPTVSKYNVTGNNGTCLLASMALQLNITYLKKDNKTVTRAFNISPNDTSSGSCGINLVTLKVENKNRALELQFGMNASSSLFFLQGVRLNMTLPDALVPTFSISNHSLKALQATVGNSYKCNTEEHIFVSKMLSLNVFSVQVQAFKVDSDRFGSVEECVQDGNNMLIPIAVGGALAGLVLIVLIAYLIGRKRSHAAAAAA

T3: Hybrid LAMP1 / glycan-deleted LAMP1 transmembrane proteins (Homo sapiens, UniProt P11279, D70S/L75K/R77G/S69A/T72E/V74L)
T3 construct: expressed in transfected cells; host or cells: 293-F (HEK293-derived), transient transfection
T3 sequence (P11279 with tags, fused parts or gaps S69A/D70S/T72E/V74L/L75K/R77G): T1 sequence (P11279 with tags, fused parts or gaps T85V/V91T/A93T) with S41A, D42S, T44E, V46L, L47K, R49G, V57T, T63V, T65A

T4: recombinant human LAMP1 coated on plate (Homo sapiens, UniProt P11279)
T4 construct: made in house; host or cells: HEK293 (293-F), transient expression, IMAC-purified
T4 sequence (P11279 with tags, fused parts or gaps): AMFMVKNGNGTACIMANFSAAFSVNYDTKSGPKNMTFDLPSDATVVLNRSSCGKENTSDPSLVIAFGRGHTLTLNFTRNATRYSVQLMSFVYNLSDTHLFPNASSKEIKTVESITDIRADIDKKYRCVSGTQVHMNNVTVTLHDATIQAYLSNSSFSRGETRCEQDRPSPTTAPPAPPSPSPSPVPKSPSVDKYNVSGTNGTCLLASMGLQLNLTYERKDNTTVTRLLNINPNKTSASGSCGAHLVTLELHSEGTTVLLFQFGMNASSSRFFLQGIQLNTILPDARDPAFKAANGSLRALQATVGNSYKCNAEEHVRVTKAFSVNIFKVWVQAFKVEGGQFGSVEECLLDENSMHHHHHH

B1: MAb2: murine monoclonal anti-LAMP1 antibody, VH SEQ ID NO: 8, VL SEQ ID NO: 12 (antibody, V domains shown)
VH: QVQLQQSAAELARPGASVKMSCKASGYTFTSYTMHWVKQRPGQGLEWIGYFNPSSGYPEYNQKFKDKTTLTADKSSNTAFIQLNSLTSEDSAVYYCSRGYYYGSRGYALDFWGQGASVTVSS
VL: NIVLTQSPVSLAVSLGQRATISCRASESVDINGNTFMHWYQQKPGQSPKLVIYAASNIESGVPARFSGSGSSTDFTFTIDPVEADDVATYYCQQNIEDPWTFGGGTKVEIK
modifications: antibod fragment; antibody fragment
B2: MAb1: murine monoclonal anti-LAMP1 antibody, VH SEQ ID NO: 1, VL SEQ ID NO: 5 (antibody, V domains shown)
VH: QVQLQQSGAELVKPGASVKMSCKASGYIFTNYNIHWVKKSPGQGLEWIGAIYPGNGDAPYSQKFKDKATLTADKSSSTTYMQLSRLTSEDSAVYYCVRANWDVAFAYWGQGTLVSVSA
VL: DIQMTQSPPSLSASLGGKVTITCKASQDIDRYMAWYQDKPGKGPRLLIHDTSTLQPGIPSRFSGSGSGRDYSFSISNLEPEDIATYYCLQYDNLWTFGGGTKLEIK
modifications: Antibody Fragment; antibody fragment

Legend:
[1] = molecular target: T1, Hybrid LAMP1 / glycan-deleted LAMP1 transmembrane proteins; assay: Binding onto membrane-anchored hybrid or mutated LAMP1 proteins (293-F cells) by flow cytometry; set-up: species or system human/mouse; conditions: pXL6017 LAMP1_mseq5_ΔGYQTI; Table 18
Method: (§1) Different LAMP1 proteins were expressed at the cell membrane of HEK293 cells after transient expression from mammalian plasmids encoding the entire coding sequence of LAMP1 deleted of the intracellular lysosome-targeting motif GYQTI and substituted by a 5-Ala repeat sequence.
(§2) Two days post transfection cells were processed, analyzed by flow cytometry (Guava® easyCyte™ 8HT) as mentioned in example 4.7, and the mean fluorescence was recorded. This fluorescence represents a semi-quantitative assessment of binding.

[2] = molecular target: T2, Hybrid LAMP1 / glycan-deleted LAMP1 transmembrane proteins; assay: as above; set-up: species or system human/mouse; conditions: pXL6048 mLAMP1_hseq11_ΔGYQTI
Method: as §1, §2

[3] = molecular target: T3, Hybrid LAMP1 / glycan-deleted LAMP1 transmembrane proteins; assay: as above; set-up: species or system human/mouse; conditions: pXL6015 LAMP1_mseq4_ΔGYQTI; Table 18
Method: as §1, §2

[4] = molecular target: T4, recombinant human LAMP1 coated on plate; assay: Binding competition between anti-LAMP1 mAbs by ELISA
Excerpt: MAb format was chosen so that the two mAbs had different Fc domains (either human or murine). […] The results were reported as a percentage of the value obtained from the mAb alone at the same concentration.
MAb format was chosen so that the two mAbs had different Fc domains (either human or murine). Individual measurements of mAb binding could be performed specifically by their unique specific binding to Fc (with Peroxidase-AffiniPure Goat Anti-Human IgG Ab, Fcγ Fragment Specific (Jackson 109-035-098) or with Peroxidase-AffiniPure Goat Anti-Mouse IgG Ab, Fcγ Fragment Specific (Jackson 115-035-164)). Results were reported as a percentage of the value obtained from the mAb alone at the same concentration, see Table 8.

recombinant human LAMP2 = molecular target: T5, recombinant human LAMP2 (Homo sapiens, UniProt P13473); assay: Specificity ELISA on recombinant human LAMP2; assay type: binding
T5 construct: purchased R&D Systems 6228-LM
Method: LAMP2 is the closest member of the LAMP family with 35% sequence identity to LAMP1. […] Anti-LAMP1 antibodies were added to the plates and detected by using rabbit anti-mouse IgG conjugated with horseradish peroxidase (Sigma; #A9044). Antibody binding was visualized by adding TMB-H2O2 buffer and read at a wavelength of 450 nm.
LAMP2 is the closest member of the LAMP family with 35% sequence identity to LAMP1. Specificity of MAb4 was evaluated by ELISA as described in example 4.6 with either LAMP1 or LAMP2 soluble proteins, as shown in FIG. 41.

[5] = mAb alone 0.06 mg/L, Secondary Ab Anti-Human IgG_HRP
[6] = mAb alone 0.06 mg/L, Secondary Ab Anti-Mouse IgG_HRP
[7] = mAb alone 15 mg/L, Secondary Ab Anti-Human IgG_HRP
[8] = mAb alone 15 mg/L, Secondary Ab Anti-Mouse IgG_HRP

T5 sequence (P13473 with tags, fused parts or gaps): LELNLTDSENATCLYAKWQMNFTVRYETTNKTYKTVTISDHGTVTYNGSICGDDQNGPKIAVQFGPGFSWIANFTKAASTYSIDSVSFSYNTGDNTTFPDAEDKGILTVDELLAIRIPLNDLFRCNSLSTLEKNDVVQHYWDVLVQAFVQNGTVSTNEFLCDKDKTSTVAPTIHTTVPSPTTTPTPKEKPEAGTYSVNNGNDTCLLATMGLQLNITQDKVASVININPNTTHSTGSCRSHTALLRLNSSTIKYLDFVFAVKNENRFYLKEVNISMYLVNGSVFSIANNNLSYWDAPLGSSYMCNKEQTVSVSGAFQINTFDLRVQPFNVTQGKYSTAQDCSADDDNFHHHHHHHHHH

Row | Molecule | Binding call [1] | Mean fluorescence [1] | Binding call ([2]; Table 17 Experiment no1) | Mean fluorescence ([2]; Table 17 Experiment no1) | Binding call [3] | Mean fluorescence [3] | competition between MAb2 and MAb3 for binding to LAMP1 ([4]; ELISA) | competition with H4A3 for binding to LAMP1 ([4]; ELISA) | competition with MAb1 for binding to LAMP1 ([4]; ELISA) | Percentage of signal compared to mAb control alone [4, 5] [%] | Percentage of signal compared to mAb control alone [4, 6] [%] | Percentage of signal compared to mAb control alone [4, 7] [%] | Percentage of signal compared to mAb control alone [4, 8] [%] | binding to LAMP2 (recombinant human LAMP2) | Binding call ([2]; Table 17 Experiment no2) | Mean fluorescence ([2]; Table 17 Experiment no2)
1 | B1 | Binding | 629 | No binding | 28 | No binding | 27 | partially compete | partially competes | No competition was observed; also recorded: does not compete | 0 | 100 | 0 | 100 | No binding |  | 
2 | B2 | Binding | 846 | No binding | 6 | Binding | 891 |  | does not compete |  | 0 | 100 | 0 | 100 | No binding | No binding | 2

— patent US9809653B2, “Anti-LAMP1 antibodies and antibody drug conjugates, and uses thereof” (SANOFI, priority 2012, dated 2017)
